Results published in article PMC8535069.

How the values were obtained:
[1] = target: Gαo with the Gln52 mutation; assay: co-IP; N2a cells co-transfected 24 h with Gαo-GFP constructs and His6-RGS19 (1:1) or mRFP-Gβ1/mRFP-Gγ3 (1:1:1); lysate in GST-lysis buffer (20 mM Tris-HCl pH 8.0, 1% Triton X-100, 10% glycerol in PBS); Gαo-GFP precipitated with GST-tagged GFP nanobody and glutathione Sepharose 4B overnight at 4 °C; Western blot against GFP, mRFP, His6; blots quantified, normalised to the precipitated Gαo, 5 experiments
[2] = target: Gαo[Gln52Pro] and Gαo[Gln52Arg]; assay: as above

fold reduction of co-precipitation against wild-type Gαo [1] | fold reduction of co-precipitation against wild-type Gαo [2] | Molecule
2 to 4 fold |  | Gβ1γ3 heterodimer (mRFP-Gβ1 and mRFP-Gγ3) (from UniProt P62873 1-340; P63215 1-75) (complex)
 | 2 to 3 fold | His6-RGS19 (natural protein) MPTPHEAEKQITGPEEADRPPSMSSHDTASPAAPSRNPCCLCWCCCCSCSWNQERRRAWQASRESKLQPLPSCEVCATPSPEEVQSWAQSFDKLMHSPAGRSVFRAFLRTEYSEENMLFWLACEELKAEANQHVVDEKARLIYEDYVSILSPKEVSLDSRVREGINKKMQEPSAHTFDDAQLQIYTLMHRDSYPRFLSSPTYRALLLQGPSQSSSEA
